In patent US8901069B2, “Protein matrix for light-initiated electron transfer” (Research Foundation of The City University of New York, priority 2009, dated 2014):
Where a chain is given by its changes, count along the chain named.

Tests used:
[1] = Reduction potential of polypeptide-bound heme/ferric cofactor vs. hydrogen electrode; assay type: physicochemical
Description: In Example 2, the reduction potential of the peptides prepared in Example 1 is regulated by modulation of peptide ionic charge and cofactor structure. The net charge of the polypeptides is calculated using conventional methods known in the art.

[2] = Heme binding affinity by titration of heme into anaerobic protein solution; conditions: oxidized heme; read-out: oxidized heme binding constant
[3] = assay type: physicochemical
Description: The reduced heme binding constants are also measured for His42→Phe mutants of the polypeptides.

CGGGEIWKQHEEALKKFEEALKQFEELKKL (listed as Chemical synthesis) [HP-1]
reduction potential difference spanned by three distinct ferric cofactors bound via bis-histidine ligation ([1]; three ferric cofactors, FIG. 4A): approximately 400 mV

B1: GEIWKQHEDALQKFEEALNQFEDLKQLGGSGCGSGGEIWKQHEDALQKFEEALNQFEDLKQL (protein, listed as Chemical synthesis)
chain: GEIWKQHEDALQKFEEALNQFEDLKQLGGSGCGSGGEIWKQHEDALQKFEEALNQFEDLKQL
notes: homodimeric helix-loop-helix variant of HP-6, recombinantly expressed in E. coli
Kd [2]: 0.22 nM | reduction potential of heme complex, more positive than HP-1-heme complex ([1]; difference vs HP-1-heme complex, earlier experiments): 45 mV

B2: CC-10: HP-7 modified to incorporate the preferred consensus sequence (protein, listed as Chemical synthesis)
chain: B1 chain with W39L, E43A, L46A, F49I, E50F
Kd [2]: 0.0107 nM | stability of heme-bound complex [3]: long-term stability

B3: CC-9: HP-7 peptide with specific Glu→Ala mutations (protein, listed as Chemical synthesis)
chain: B1 chain with E43A, E50A, E57A
increase in bound heme reduction potential compared to HP-7 ([1]; difference vs HP-7, FIG. 4B): 101 mV
